The data set can be described thus: label from the status in PepcDB records.

As for “MISWRDRLTKALPQIAVVVHDLLMVWVCWQLLHAGRYSMLRDAPNLPLWDWRTAVVLVAQGLVFWKMGLYRGLWRFASVPDLWNIFKASFLGLVAIVLALAYDRLDGVPLSVLVVYPFALSALLGTPRLLYRAWKDYQIAHSGDAAQRVLILGAGRAAEGLVRDLRRTGAFVPVGYLDDANNLHGAKIQGLNVLGNLDQAAAIAKETAAKLLVIAIPSLDASGMQRVVAICESTGLPFRMVPKLINVLEGRSLPGELKEVAIEDLLNRKPVTPDWRLIRDWLTNKTVMVTGAGGSIGSEVCRQCARHGARRIVLLEIDELALLTIDSDLRRLFPDIEVVRVLGDCGDPAVVAHALNTATPDAVFHAAAYKQVPLLEEQLREAVRNNVLATENVARACQRARIETFVFISTDKAVEPVNVLGASKRYAEMICQSLDARDAPTRFITVRFGNVLDSAGSVVPLFREQIRQGGPVTVTHPDVTRYFMTIPEACQLVIQAAASASHGAIYTLDMGEPVPIRLLAEQMIRLAGKQPGKDVAILYTGLRPGEKLHETLFYSDEAYRPTAHPKILEAGVREFSHEQVLQLVMRLREAVNRYDIKAMETVLGSLMPDFAAARRKVDARSDTVVPFPAREVRRL”, the protein production entry is listed as “failed”.
Regarding “MITDIPWNRGEWTNQPAAVVEQAGDLLVTAAESSDAWRVTSYGFIHDTEHALLAPLPQDSAMEVEFTAAFSQQFDQAGIFVRISAEHWIKAGVEFADGAAQVGAVVTNRFSDWSLAPVPDWNGERVRMRVSRSGDALTIRAASGSNELRLVRVVPLAPDLVTVAGPFTCAPTRAGLTVPFHSWRAKPADSQLH”, the protein production result is “failed”.
Take “MITFKEFVDYWFEAYASTAVKPSTQKRYRQLLKPALRAIGNKPLNKVKPLDIQNIYIALAGTQSNCTILKLHRLLHEIFKHAQMWEYISDNPVKKVVPPTPELEHHHHHH”: the protein production entry is listed as “not failed”.
In the case of “MITIDPEYFEILKEFGAERVVRCYQCGTCTGICPVSTTDASFPRKPVLLSRFGVGEVIENFEEAWLCLSCNLCTEFCPRDVKPSETMLAIKRVLVENGKTPPYIRDFFQLEHHHHHH” it was “failed”; in that of “MITIEISINLELIISFYLLFILGANNVANAIGTAYASRATTYRNLLILFSISVIIGSLFAKNVGSTVNSLSSDALTALIISALVMTLSTYKKVPISLHTVIICSLIGLNFNSSNLYVFGEILLSWILSPIIAVVIAYILYSAYEKIDISILKKITMIRYFLLISAAVVAFNLGSNDLPTVLGTFTTSQIIYIIGAIFLCLGAYLYGNRVSETLSMITNLSVSSAFIAQLSGGLAVTIFTALGMPVSTTQAIVGGILGVGLTKGIKTVRWKVLKNIIFWWVVAPIIALIIGFIINRMI”, “failed”.
The value for “MITKVTARNNKITPVELLNQKFGNKINLGNFADAVFTDAAFKNVAGIANLPMKAPVMQVLMENCIVSKYLKQFVPDRSVCFVEEGQKFYIVLEDGQKIEVPEDVNKALKATVSDVKHWAGYLTEDGEHVIDLLKPAPGPHFYVNLLIGNRLGFKRTLQTTPKSVVDRFGRGSFRSHAATQVLATRFDMRQEENGFPANRQFYLYEDGKQIFYSALIDDNIVEATCKHSCNRTVIKYKTACNLEITRTIFLVPHKKGFPLATELQRIEIKNASDKARNLSITYTGMFGTGAVHAIFEDVTYTNVIMQSAALYNDKGEFIGITPDYYPEEFKQDTRFVTMIVRNGDEKSFPQSFCTDYNDFVGTGTLEHPAGGCNLNNKLNRKGPGFFALGAPFTVEPGKTVIIDTFTGLSSSKDNENYSDAVMLRELDNLLRYFEKSESVEETLNEIINFHENYGKYFQFNTGNKLFDSGFNRNLAFQVLYQTFMSRSFGQTQKGYREIGFREIQDLFASMYYFINIGYQDFVKELLFEWTANVYKMGYANHNFYWVGKQPGLYSDDSLWLLQAYYRYIIYTKDTSVLNEEVPVADGNNEKRAVRETLKAIIQYSACISVGDHGLPLLDLADWNDCLKIASNSIDGATKEKLYYEQLKKTNGKYGDRFMSDYSESVMNAFLLKLAIDHLAEIATLDNDTQLAQQMSELSKEVTDRIQKHAWKENFFARVLINRYKDGSYTYLGAKGDKLSADPNIDGVYFLNSFAWSVLSDVATDEQIAIMVDVIKKHLLTPYGLRLVTPADLNKIANDTATGHYFFGDRENGAVFKHASMMAVAALIKAAKKVKDNELAKEMARIAYFMIDLVLPYKNLENPFQVAGNPRICTQYINTDTGENIGPLLSGTATWLNLNLISLAGIEYTRDGISFNPILREEETQLNFTLKAPKCSYKFSITKPVGFARMESSEYELFVDGQKIDNTVIPMYTDEKEHIVTLKFK” was “not failed”; that for “MITNNVSLLIMGIDENQERQKEYNGAFHTDALLLATFNKDDKTVKLTSIPRDTYTYVPVEKKKDKITHAYGSGFVKNGKDGGPQTSVEAVEKLLQVPVDYFVKFNFNSFTKIVDGLDGIEVDVPVEFTEQNSKDEPDAIHLKKGLQKLTGEEALALARTRHIDSDAMRGQRQQLVIEAILSKLKSVGSITKLEKIVEAVDGDFKTNLAMDDILSFYKYGLNCSIEKIQLAGDDLYLPNGPNGQRVYYYNPNKKDLQSLSNTLRTHLGLSEKQIEENLEHHHHHH” was “not failed”; that for “MITSTNKEAYPNTLIVILGHDEGRSSFEEKEDVTRVTNDKGETIGFNFFNVDKLIDFDKLPNGPVKLSDDELEALNKKLAEVGFDDKLEYGKPTLVYGYVKTCEKHPDSDHLHVTTIEVGDGEEHQIVCGAPNIAQGQKVVVALPGTLMPNGAQIWPGKLRGVDSYGMICSARELGLPHAPQKRGIMVVPDSFEVGAEFEPTKCDELIASGEITLLEHHHHHH” was “not failed”.
In the case of “MITVFGLKSKLAPRREKLAEVIYNSLHLGLDIPKGKHAIRFLCLEKEDFYYPFDRSDDYTVIEINLMAGRMEGTKKRLIKMLFSELEYKLGIRAHDVEITIKEQPAHCWGFRGMTGDEARDLDYDIYV” it was “not failed”; in that of “MITVVGGTFSKLHKGHKALLNTAIDTGNEVVIGLTSDEYVKKNKVYPAIPYSVRYRTLYNYMIKRTNKFRIRQIDDRNGNAPYEKDYEVIVVSPETYPRSLKINEIRISNGLPPLKIIRVPYVLAQDLFPISSTRIINGEID”, “not failed”.
For “MITYPKQMRDSGFKFEFFCDQGGYYQHVMDHLISCTQRQETPVNISNIPKCKAVLVTSLTGEIIKAQGRHLDMLLIVFED”, the protein production result is reported as “failed”.
“MIVAWTLGIFGDDLPKGGARETGLLVHVSAGLLILAALIMRLVWRAAVPPPPPEPNEFRRWLGAFADPSARLFHYTLYALLVVVPVAGIVTQFARGEALPLLGIYEISSPWIRDRAFAHSVKEIHEIAAHALVFVAFFHAGAALIHHIVFRDNTLNRMLPRSK”: the protein production result is “failed”.
The value for “MIVCKNRIGTMKRLGRISLRVLLLAGVLLSLLLMAMTLLYPPVEKGGLFFMLAIEVALLFFLGFLYNKVVLPIRAVGDGMDMLRSQDYATTLAPVGQPDADRVVELYNALMHSLKKERLRLEERDNFLSLVMDVSPVGFVVLDFDMRVVSVNPAARRLLDLPDDYIPIERPLEEVCAKIPFGPDELGEGESRTWRLPTAEVRRITRMRFFDRSFSRLFFSIETLTEELHSAEKEAYEKLIRLIAHEVNNSTAGIIGVLNAVGDAFDDTPHTPEGEVSEAIALCRDRCMAMSRFITRFAEVVKLPDPTLSSVDLVPLCERCILLMQPLAVETGVKMKMCKEQDSCLVRCDAEQIEQVVINLLRNAIESFAQQNDLAVSATKTVLLCLDRHNLLVEDNGQPISDDVATRLFTPFFSTKPNGQGIGLVVIREVLTRHGWSFSLTTDADGRTRFRMAWP” was “failed”; that for “MIVEERIYRIRGGKMQEYLKLVREEGIAIQAPILGNLIGYFVTDIGPLSQVIHMWGYASLDDRAERRGKLAEDQRWQAFIPRLSVLIESSENRILLPTDFSPLR” was “not failed”; that for “MIVITGASSGLGAELAKLYDAEGKATYLTGRSESKLSTVTNCLSNNVGYRACDLASHQEVEQLFEQLDSIPSTVVHSAGSGYFGPLEKQDPDQIQTLIENNLSSAINVLRELVKRYKDQPVNVVMIMSTAAQQPKAQESTYCAVKWAVKGLIESVRLELKGKPMKIIAVYPGGMATEFWETSGKSLDTSSFMSAEDAALMILGALANIGNGYVSDITVNRL” was “failed”.
Take “MIVLGHRGYSAKYLENTLEAFMKAIEAGANGVELDVRLSKDGKVVVSHDEDLKRLFGLDVKIRDATVSELKELTDGKITTLKEVFENVSDDKIINIEIKEREAADAVLEISKKRKNLIFSSFDLDLLDEKFKGTKYGYLIDEENYGSIENFVERVEKERPYSLHVPYQAFELEYAVEVLRSFRKKGIVIFVWTLNDPEIYRKIRREIDGVITDEVELFVKLR”: the protein production entry was “not failed”.

(Values after a protein production outcome set (Wang et al. 2014).)
